US20260144882A1 (BIO THERA SOLUTIONS, published 2026)
Substitutions are numbered along the chain they refer to.

T1: human Nectin-4 extracellular antigen hNectin-4-His (human, UniProt Q96NY8 32-349)
T1 construct: C-terminal 8xHis tag included
T1 sequence: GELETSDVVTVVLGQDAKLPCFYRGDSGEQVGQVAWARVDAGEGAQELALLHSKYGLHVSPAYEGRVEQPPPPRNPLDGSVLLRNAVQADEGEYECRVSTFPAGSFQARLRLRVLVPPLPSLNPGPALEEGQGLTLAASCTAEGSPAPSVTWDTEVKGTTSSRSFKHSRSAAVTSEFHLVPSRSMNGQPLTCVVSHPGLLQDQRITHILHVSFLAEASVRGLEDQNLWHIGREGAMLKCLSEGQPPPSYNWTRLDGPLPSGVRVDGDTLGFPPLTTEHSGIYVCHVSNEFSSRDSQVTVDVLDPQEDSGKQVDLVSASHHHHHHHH

B1: 1G8-2B6 scFv (scFv, V domains shown)
VH: EVQLVESGGGLVQPGGSLRLSCAASGGSFGGYAMSWVRQAPGKGLEWVSRIYAYKSENDYADSVKGRFTISRDNSKNTLYLQMNSLRAEDTAVYYCARQTEDRSYGYDLDYWGQGTLVTVSS
VL: DIQMTQSPSSLSASVGDRVTITCRASQGISSYLAWYQQKPGKAPKLLIYAASSLQSGVPSRFSGSGSGTDFTLTISSLQPEDFATYYCQQHYTTPPTFGQGTKVEIKR
notes: phage clone supernatant
B2: 1G8-1F5 scFv (scFv, V domains shown)
VH: EVQLVESGGGLVQPGGSLRLSCAASGDIFDTYMSWVRQAPGKGLEWVSRIYTDGSSDYADSVKGRFTISRDNSKNTLYLQMNSLRAEDTAVYYCARQTEDRSYGYDLDYWGQGTLVTVSS
VL: B1 VL
notes: phage clone supernatant
B3: 1G8-2B12 scFv (scFv, V domains shown)
VH: EVQLVESGGGLVQPGGSLRLSCAASGDTFGTSSMSWVRQAPGKGLEWVSRIDTWGWYKFYADSVKGRFTISRDNSKNTLYLQMNSLRAEDTAVYYCARQTEDRSYGYDLDYWGQGTLVTVSS
VL: B1 VL
notes: phage clone supernatant
B4: 1G8-2H1 scFv (scFv, V domains shown)
VH: EVQLVESGGGLVQPGGSLRLSCAASGYSFYSYAMSWVRQAPGKGLEWVSRISQGGGVTHYADSVKGRFTISRDNSKNTLYLQMNSLRAEDTAVYYCARQTEDRSYGYDLDYWGQGTLVTVSS
VL: B1 VL
notes: phage clone supernatant
B5: 1G8-2F11 scFv (scFv, V domains shown)
VH: B4 VH with S28T, Y30G, Y32N, Q53P, G54D, G55S, G56S, V57G, T58I, H59S
VL: B1 VL
notes: phage clone supernatant
B6: 1G8-2F2 scFv (scFv, V domains shown)
VH: B4 VH with Y27D, S28I, Y30G, Q53S, G54H, G56A, V57S, T58R, H59D
VL: B1 VL
notes: phage clone supernatant
B7: 1G8-2D9 scFv (scFv, V domains shown)
VH: B3 VH with T28I, G30D, T31G, S32Y, W54G, W56S, Y57V, F59N
VL: B1 VL
notes: phage clone supernatant
B8: 1G8-2D6 scFv (scFv, V domains shown)
VH: B1 VH with G27F, G30D, Y52S, Y54H, K55S, S56W, E57N, N58K
VL: B1 VL
notes: phage clone supernatant
B9: 1G8-2G7 scFv (scFv, V domains shown)
VH: B1 VH with S28T, G30Y, G31T, A53S, Y54T, S56G, E57T, N58P
VL: B1 VL
notes: phage clone supernatant
B10: 1G8-2C6 scFv (scFv, V domains shown)
VH: B1 VH with G27D, S28N, G30S, G31S, A53G, Y54S, K55D, E57T, N58P
VL: B1 VL
notes: phage clone supernatant
B11: 1G8-2G4 scFv (scFv, V domains shown)
VH: B3 VH with D27F, T31G, S32Y, D52S, W54D, W56A, K58T, F59N
VL: B1 VL
notes: phage clone supernatant
B12: 1G8-2G9 scFv (scFv, V domains shown)
VH: B4 VH with S28I, Y30T, S31N, G54S, V57T, T58N, H59D
VL: B1 VL
notes: phage clone supernatant
B13: 1G8-2G3 scFv (scFv, V domains shown)
VH: B1 VH with G27F, S28I, Y32N, Y52S, A53S, Y54D, S56G, E57T, N58T, D59N
VL: B1 VL
notes: phage clone supernatant
B14: 1G8-2C7 scFv (scFv, V domains shown)
VH: B4 VH with Y30T, S31N, Y32F, G54D, V57N, T58K, H59N
VL: B1 VL
notes: phage clone supernatant
B15: 1G8-2B10 scFv (scFv, V domains shown)
VH: B4 VH with Y27F, Y30T, S31N, Y32N, S52D, Q53T, G54I, V57T, T58S, H59S
VL: B1 VL
notes: phage clone supernatant
B16: 1G8-2H8 scFv (scFv, V domains shown)
VH: B4 VH with Y27D, S28I, Y30G, R50A, Q53G, G54S, V57S, H59Y
VL: B1 VL
notes: phage clone supernatant
B17: 1G8-2D11 scFv (scFv, V domains shown)
VH: B1 VH with G27Y, G30S, Y32N, Y52D, A53G, Y54W, K55G, E57Y, N58T
VL: B1 VL
notes: phage clone supernatant
B18: 1G8-2E7 scFv (scFv, V domains shown)
VH: B1 VH with G27Y, S28T, G31N, Y52S, A53P, Y54S, K55T, S56W, E57N, N58I
VL: B1 VL
notes: phage clone supernatant
B19: 1G8-2H3 scFv (scFv, V domains shown)
VH: B1 VH with G27Y, Y52S, A53G, Y54I, S56A, E57Y
VL: B1 VL
notes: phage clone supernatant
B20: 1G8-2H10 scFv (scFv, V domains shown)
VH: EVQLVESGGGLVQPGGSLRLSCAASGYNFTNSAMSWVRQAPGKGLEWVSSIYYHSGVPRYADSVKGRFTISRDNSKNTLYLQMNSLRAEDTAVYYCARQTEDRSYGYDLDYWGQGTLVTVSS
VL: B1 VL
notes: phage clone supernatant
B21: 1G8-2F9 scFv (scFv, V domains shown)
VH: B1 VH with G27Y, G30S, G31N, Y52S, Y54W, K55G, E57T, D59N
VL: B1 VL
notes: phage clone supernatant
B22: 1G8-2G8 scFv (scFv, V domains shown)
VH: B4 VH with Y27F, S28N, Y30T, S31N, Q53T, G54Y, G56D, V57T
VL: B1 VL
notes: phage clone supernatant
B23: 1G8-2H4 scFv (scFv, V domains shown)
VH: B4 VH with Y27D, Y30T, S31G, R50A, Q53G, G54S, V57S, H59Y
VL: B1 VL
notes: phage clone supernatant
B24: 1G8-2H11 scFv (scFv, V domains shown)
VH: EVQLVESGGGLVQPGGSLRLSCAASGFNFDNYAMSWVRQAPGKGLEWVSRIYGWDWYASYADSVKGRFTISRDNSKNTLYLQMNSLRAEDTAVYYCARQTEDRSYGYDLDYWGQGTLVTVSS
VL: B1 VL
notes: phage clone supernatant
B25: 1G8-2H9 scFv (scFv, V domains shown)
VH: B24 VH with D30G, R50A, G53S, W54Y, D55F, W56D, Y57E, A58P, S59R
VL: B1 VL
notes: phage clone supernatant
B26: 1G8-2D7 scFv (scFv, V domains shown)
VH: B4 VH with Y27D, Y30T, Q53A, G54D, G55S, G56A, V57S, T58P, H59S
VL: B1 VL
notes: phage clone supernatant

These binders were tested against T1, human Nectin-4 extracellular antigen … (assay: ELISA, phage scFv supernatant 1:50).

Row | Binder | OD value
1 | B1 | 1.56 OD
2 | B2 | 1.56 OD
3 | B3 | 1.39 OD
4 | B4 | 1.58 OD
5 | B5 | 1.57 OD
6 | B6 | 1.6 OD
7 | B7 | 1.54 OD
8 | B8 | 1.63 OD
9 | B9 | 1.49 OD
10 | B10 | 1.58 OD
11 | B11 | 1.58 OD
12 | B12 | 1.54 OD
13 | B13 | 1.58 OD
14 | B14 | 1.58 OD
15 | B15 | 1.56 OD
16 | B16 | 1.57 OD
17 | B17 | 1.53 OD
18 | B18 | 1.56 OD
19 | B19 | 1.53 OD
20 | B20 | 1.53 OD
21 | B21 | 1.56 OD
22 | B22 | 1.58 OD
23 | B23 | 1.58 OD
24 | B24 | 1.35 OD
25 | B25 | 1.46 OD
26 | B26 | 1.54 OD
